Experimental data: the Human Domainome abundance scans (Beltran et al. 2025)
± gives the uncertainty stated by the source.

B1: Proto-oncogene vav, residues 782 to 842; numbered along this chain, P15498 (parent)
chain: KYFGTAKARYDFCARDRSELSLKEGDIIKILNKKGQQGWWRGEIYGRVGWFPANYVEEDYS

Variants of: B1
Assay: abundance fitness (aPCA) (normalised: wild type 0, dead -1); higher = more abundant; growth selection in yeast, the domain comes from the species named
Conditions: Homo sapiens

Row | Variant | abundance fitness
1 | KYFGTAKARYDFCARDRSELSLKEGDIIKILNKKGQQGWWRGEGYGRVGWFPANYVEEDYS [I44G] | -0.619 ± 0.096
2 | KYFGTAKARYDFCARDRSELSLKEGDIIKILNKKGQQGWWRGENYGRVGWFPANYVEEDYS [I44N] | 0.085 ± 0.17
3 | KYFGTAKARYDFCARDRSELSLKEGDIIKILNKKGQQGWWRGEFYGRVGWFPANYVEEDYS [I44F] | -0.257 ± 0.24
4 | KYFGTAKARYDFCARDRSELSLKEGDIIKILNKKGQQGWWRGEQYGRVGWFPANYVEEDYS [I44Q] | -0.484 ± 0.16
5 | KYFGTAKARYDFCARDRSELSLKEGDIIKILNKKGQQGWWRGEPYGRVGWFPANYVEEDYS [I44P] | -0.556 ± 0.14
6 | KYFGTAKARYDFCARDRSELSLKEGDIIKILNKKGQQGWWRGEDYGRVGWFPANYVEEDYS [I44D] | -0.486 ± 0.16
7 | KYFGTAKARYDFCARDRSELSLKEGDIIKILNKKGQQGWWRGELYGRVGWFPANYVEEDYS [I44L] | 0.089 ± 0.075
8 | KYFGTAKARYDFCARDRSELSLKEGDIIKILNKKGQQGWWRGERYGRVGWFPANYVEEDYS [I44R] | -0.145 ± 0.062
9 | KYFGTAKARYDFCARDRSELSLKEGDIIKILNKKGQQGWWRGEHYGRVGWFPANYVEEDYS [I44H] | -0.025 ± 0.21
10 | KYFGTAKARYDFCARDRSELSLKEGDIIKILNKKGQQGWWRGEMYGRVGWFPANYVEEDYS [I44M] | -0.292 ± 0.1
11 | KYFGTAKARYDFCARDRSELSLKEGDIIKILNKKGQQGWWRGEWYGRVGWFPANYVEEDYS [I44W] | -0.556 ± 0.12
12 | KYFGTAKARYDFCARDRSELSLKEGDIIKILNKKGQQGWWRGEAYGRVGWFPANYVEEDYS [I44A] | 0.062 ± 0.069
13 | KYFGTAKARYDFCARDRSELSLKEGDIIKILNKKGQQGWWRGECYGRVGWFPANYVEEDYS [I44C] | 0.042 ± 0.087
14 | KYFGTAKARYDFCARDRSELSLKEGDIIKILNKKGQQGWWRGEKYGRVGWFPANYVEEDYS [I44K] | -0.239 ± 0.16
15 | KYFGTAKARYDFCARDRSELSLKEGDIIKILNKKGQQGWWRGEVYGRVGWFPANYVEEDYS [I44V] | 0.044 ± 0.062
16 | KYFGTAKARYDFCARDRSELSLKEGDIIKILNKKGQQGWWRGETYGRVGWFPANYVEEDYS [I44T] | -0.027 ± 0.095
17 | KYFGTAKARYDFCARDRSELSLKEGDIIKILNKKGQQGWWRGEYYGRVGWFPANYVEEDYS [I44Y] | -0.425 ± 0.17
18 | KYFGTAKARYDFCARDRSELSLKEGDIIKILNKKGQQGWWRGEIYPRVGWFPANYVEEDYS [G46P] | -0.387 ± 0.061
19 | KYFGTAKARYDFCARDRSELSLKEGDIIKILNKKGQQGWWRGEIYTRVGWFPANYVEEDYS [G46T] | -0.542 ± 0.069
20 | KYFGTAKARYDFCARDRSELSLKEGDIIKILNKKGQQGWWRGEIYERVGWFPANYVEEDYS [G46E] | -0.311 ± 0.063
21 | KYFGTAKARYDFCARDRSELSLKEGDIIKILNKKGQQGWWRGEIYRRVGWFPANYVEEDYS [G46R] | -0.671 ± 0.061
22 | KYFGTAKARYDFCARDRSELSLKEGDIIKILNKKGQQGWWRGEIYCRVGWFPANYVEEDYS [G46C] | -0.784 ± 0.17

Row | Variant | abundance fitness
23 | KYFGTAKARYDFCARDRSELSLKEGDIIKILNKKGQQGWWRGEIYKRVGWFPANYVEEDYS [G46K] | -0.516 ± 0.12
24 | KYFGTAKARYDFCARDRSELSLKEGDIIKILNKKGQQGWWRGEIYVRVGWFPANYVEEDYS [G46V] | -0.748 ± 0.073
25 | KYFGTAKARYDFCARDRSELSLKEGDIIKILNKKGQQGWWRGEIYLRVGWFPANYVEEDYS [G46L] | -0.67 ± 0.07
26 | KYFGTAKARYDFCARDRSELSLKEGDIIKILNKKGQQGWWRGEIYIRVGWFPANYVEEDYS [G46I] | -0.766 ± 0.16
27 | KYFGTAKARYDFCARDRSELSLKEGDIIKILNKKGQQGWWRGEIYARVGWFPANYVEEDYS [G46A] | -0.731 ± 0.09
28 | KYFGTAKARYDFCARDRSELSLKEGDIIKILNKKGQQGWWRGEIYSRVGWFPANYVEEDYS [G46S] | -0.343 ± 0.067
29 | KYFGTAKARYDFCARDRSELSLKEGDIIKILNKKGQQGWWRGEIYYRVGWFPANYVEEDYS [G46Y] | -1.01 ± 0.29
30 | KYFGTAKARYDFCARDRSELSLKEGDIIKILNKKGQQGWWRGEIYQRVGWFPANYVEEDYS [G46Q] | -0.291 ± 0.082
31 | KYFGTAKARYDFCARDRSELSLKEGDIIKILNKKGQQGWWRGEIYDRVGWFPANYVEEDYS [G46D] | -0.19 ± 0.098
32 | KYFGTAKARYDFCARDRSELSLKEGDIIKILNKKGQQGWWRGEIYMRVGWFPANYVEEDYS [G46M] | -0.896 ± 0.12
33 | KYFGTAKARYDFCARDRSELSLKEGDIIKILNKKGQQGWWRGEIYHRVGWFPANYVEEDYS [G46H] | -0.672 ± 0.16
34 | KYFGTAKARYDFCARDRSELSLKEGDIIKILNKKGQQGWWRGEIYNRVGWFPANYVEEDYS [G46N] | -0.15 ± 0.098
35 | KYFGTAKARYDFCARDRSELSLKEGDIIKILNKKGQQGWWRGEIYFRVGWFPANYVEEDYS [G46F] | -0.942 ± 0.14
36 | KYFGTAKARYDFCARDRSELSLKEGDIIKILNKKGQQGWWRGEIYWRVGWFPANYVEEDYS [G46W] | -0.853 ± 0.1
37 | KYFGTAKARYDFCARDRSELSLKEGDIIKILNKKGQQGWWRGEIWGRVGWFPANYVEEDYS [Y45W] | -0.101 ± 0.068
38 | KYFGTAKARYDFCARDRSELSLKEGDIIKILNKKGQQGWWRGEIMGRVGWFPANYVEEDYS [Y45M] | 0.1 ± 0.06
39 | KYFGTAKARYDFCARDRSELSLKEGDIIKILNKKGQQGWWRGEIQGRVGWFPANYVEEDYS [Y45Q] | 0.169 ± 0.066
40 | KYFGTAKARYDFCARDRSELSLKEGDIIKILNKKGQQGWWRGEIAGRVGWFPANYVEEDYS [Y45A] | 0.106 ± 0.056
41 | KYFGTAKARYDFCARDRSELSLKEGDIIKILNKKGQQGWWRGEIHGRVGWFPANYVEEDYS [Y45H] | 0.135 ± 0.15
42 | KYFGTAKARYDFCARDRSELSLKEGDIIKILNKKGQQGWWRGEIGGRVGWFPANYVEEDYS [Y45G] | 0.125 ± 0.044
43 | KYFGTAKARYDFCARDRSELSLKEGDIIKILNKKGQQGWWRGEIFGRVGWFPANYVEEDYS [Y45F] | 0.085 ± 0.17
